B1: ZNF263 (parent)
chain: QPKKLHLCPLCGKNFSNNSNLIRH
B2: FAM164C (parent)
chain: YPHCTGISQQDPESDSQGQGNGLF

Variants of: B1
Experiment: protein stability index of a GFP-peptide fusion (GPS, HEK-293T) (PSI 1-6); higher = more stable
Details: c terminus: a fixed tail appended
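Further: lentivirally expressed fusions sorted by FACS into six bins by GFP to DsRed ratio, PSI derived from sequencing read proportions per bin multiplied by bin number.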

Protein stability index: each site, then its substitutions
N18: Y 3.22
S19: P 1.77 | A 2.65 | E 3.14 | K 3.37 | Q 2.69 | I 2.58 | G 1.96 | V 2.43 | L 2.96 | W 2.67 | R 2.5 | N 2.89 | H 2.55 | D 3.24 | M 2.7 | F 2.54 | C 3.3 | T 2.75 | Y 2.6
H24: I 2.08 | T 2.35 | R 2.07 | S 2.4 | L 2.24 | N 2.22 | A 1.74 | G 2.43 | Y 2.61 | P 2.56 | K 2.64 | E 2.43 | V 2.27 | D 2.11 | W 2.38 | C 1.84 | M 2.31 | Q 2.43 | F 2.44
I22: V 2.73 | D 2.86 | M 2.88 | N 2.5 | F 2.47 | K 2.33 | P 2.19 | R 2.76 | S 2.55 | C 4.04 | Y 2.69 | Q 3.09 | G 1.98 | W 1.79 | A 2.8 | L 2.93 | H 2.76 | T 2.35 | E 3.45
L21: P 1.93 | Y 2.12 | I 2.47 | Q 2.38 | M 2.48 | N 2.44 | D 2.72 | E 2.92 | F 2.32 | A 2.56 | T 2.56 | W 2.44 | K 2.87 | C 3.13 | S 2.19 | H 2.83 | V 2.85 | G 2.62 | R 2.64
N20: P 2.49 | M 2.54 | V 2.04 | C 3.21 | Q 4.04 | S 3.09 | G 2.46 | H 2.69 | Y 2.56 | R 2.01 | E 3.42 | I 1.94 | F 1.57 | K 3 | T 2.94 | L 3.05 | D 4 | W 1.57 | A 3.25
R23: Q 2.77 | D 3.77 | I 1.91 | Y 1.91 | A 3.08 | C 3 | E 3.06 | K 3.19 | M 2.52 | W 1.76 | P 2.93 | V 2.33 | L 2 | T 2.92 | H 2.56 | N 2.96 | F 2.42 | S 2.78 | G 2.65

Variants of: B2
Experiment: as above
Details: c terminus: a fixed tail appended

Protein stability index, by site and new letter:
H3: R 3.6 | I 4.18 | C 3.1 | E 4.58 | F 4 | Q 3.29 | N 4.09 | L 3.37 | M 3.46 | G 3.39 | A 3.75 | K 3.9 | D 4.48 | P 3.32
P2: V 1.91 | H 2.9 | Q 3.58 | R 4.71 | E 5.31 | T 3.35 | K 4.51 | C 2.45 | N 4.54 | D 5.09 | G 4.47 | W 3.67 | I 2.83 | S 4.65 | L 3.96 | F 3.86 | A 3.57 | M 4.07 | Y 4.22
Y1: I 5.14 | K 5.28 | V 5.07 | R 4.63 | L 5.44 | Q 5.36 | C 4.29 | D 5.46 | S 5.39 | M 5.4 | T 5.38 | N 5.28 | P 5.37 | A 5.44 | E 5.25 | F 3.49 | H 4.85 | G 5.44 | W 4.43

From the supplement of paper PMC10567573
